Data on two sequences can be found in paper PMC12597101.

The test system of the series is 151AmF-GFP (azide-exposed GFP, protein part of RGG/DGG) (synthetic (codon-optimized GFP, expressed in E. coli NiCo21(DE3))). Nature of the series: EMSA (SDS-PAGE gel shift). The settings on record: clicked to AmF-GFP, 59 pmol GFP + 59 pmol guide, SPAAC at 4 C for 1.5 h, then equal volume of target, 20 min at room temperature, 15% SDS-PAGE, protein stored in 50 mM HEPES …. In general terms: Mobility shift assays separate free from complexed probe on a gel.

For the sequence “TAACCCTAACCCTAACCCTAACCCTA / GCUAGAUCCGUAGGGUUAGGGUUAGGGUUAGGGUUAACCUCCGACC [Tel26-DBCO-DNA guide + Target RNA [Tel26]]”, where the note is “DGG (covalent DNA guide), DBCO on guide DNA”, the binding signal is 86 % bound. As to “UAACCCUAACCCUAACCCUAACCCUA / GCUAGAUCCGUAGGGUUAGGGUUAGGGUUAGGGUUAACCUCCGACC [Tel26-DBCO-RNA guide + Target RNA [Tel26]]”, for the setting “RGG (covalent RNA guide), DBCO on guide RNA”, the binding signal worked out at 88 % bound.
